Reference: PMC11811891, “Structural insights into human TFIIIC promoter recognition” (Science Advances, 2023)

T1: human TFIIIC subunit TFIIIC102 (human, UniProt Q9Y5Q9 1-886)
T1 construct: TFIIIC102, subunit of human TFIIIC; No truncation is described; also called τ131 in yeast (homolog); GTF3C3; source: Sf21 insect cells, baculovirus, coexpressed with the other five hTFIIIC subunits; purified (anti-FLAG M2 agarose, Capto HiRes Q)
T1 sequence: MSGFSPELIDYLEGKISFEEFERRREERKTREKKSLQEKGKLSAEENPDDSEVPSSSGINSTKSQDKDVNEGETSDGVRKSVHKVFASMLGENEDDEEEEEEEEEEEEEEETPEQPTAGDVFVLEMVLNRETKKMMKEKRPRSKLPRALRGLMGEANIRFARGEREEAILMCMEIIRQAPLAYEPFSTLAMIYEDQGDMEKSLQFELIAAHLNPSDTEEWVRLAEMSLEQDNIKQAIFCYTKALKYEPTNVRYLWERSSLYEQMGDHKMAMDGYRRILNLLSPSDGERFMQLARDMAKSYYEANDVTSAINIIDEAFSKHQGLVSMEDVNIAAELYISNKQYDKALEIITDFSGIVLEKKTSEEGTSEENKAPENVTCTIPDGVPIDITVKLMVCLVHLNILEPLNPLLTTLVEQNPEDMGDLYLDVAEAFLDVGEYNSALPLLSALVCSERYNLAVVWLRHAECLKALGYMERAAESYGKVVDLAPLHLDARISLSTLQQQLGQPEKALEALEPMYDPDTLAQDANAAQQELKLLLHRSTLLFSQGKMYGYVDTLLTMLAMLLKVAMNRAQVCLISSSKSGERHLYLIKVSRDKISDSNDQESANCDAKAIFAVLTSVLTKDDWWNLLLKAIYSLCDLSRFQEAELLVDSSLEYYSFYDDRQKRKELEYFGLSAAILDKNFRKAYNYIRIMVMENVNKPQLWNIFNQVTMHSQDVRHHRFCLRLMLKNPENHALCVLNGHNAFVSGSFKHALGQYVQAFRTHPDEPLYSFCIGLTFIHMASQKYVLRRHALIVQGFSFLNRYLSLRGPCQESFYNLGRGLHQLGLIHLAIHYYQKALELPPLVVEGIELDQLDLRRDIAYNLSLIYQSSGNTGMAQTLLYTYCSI

B1: TFIIIC35-TFIIIC63 heterodimer (complex, human)
chain 1: MAAAADERSPEDGEDEEEEEQLVLVELSGIIDSDFLSKCENKCKVLGIDTERPILQVDSCVFAGEYEDTLGTCVIFEENVEHADTEGNNKTVLKYKCHTMKKLSMTRTLLTEKKEGEENIGGVEWLQIKDNDFSYRPNMICNFLHENEDEEVVASAPDKSLELEEEEIQMNDSSNLSCEQEKPMHLEIEDSGPLIDIPSETEGSVFMETQMLP
chain 2: MAAEAADLGLGAAVPVELRRERRMVCVEYPGVVRDVAKMLPTLGGEEGVSRIYADPTKRLELYFRPKDPYCHPVCANRFSTSSLLLRIRKRTRRQKGVLGTEAHSEVTFDMEILGIISTIYKFQGMSDFQYLAVHTEAGGKHTSMYDKVLMLRPEKEAFFHQELPLYIPPPIFSRLDAPVDYFYRPETQHREGYNNPPISGENLIGLSRARRPHNAIFVNFEDEEVPKQPLEAAAQTWRRVCTNPVDRKVEEELRKLFDIRPIWSRNAVKANISVHPDKLKVLLPFIAYYMITGPWRSLWIRFGYDPRKNPDAKIYQVLDFRIRCGMKHGYAPSDLPVKAKRSTYNYSLPITVKKTSSQLVTMHDLKQGLGPSGTSGARKPASSKYKLKDSVYIFREGALPPYRQMFYQLCDLNVEELQKIIHRNDGAENSCTERDGWCLPKTSDELRDTMSLMIRQTIRSKRPALFSSSAKADGGKEQLTYESGEDEEDEEEEEEEEEDFKPSDGSENEMETEILDYV
notes: TFIIIC35, subunit of human TFIIIC; as the chain of m6; TFIIIC63, subunit of human TFIIIC; as the chain of m5; source: Sf21 insect cells, baculovirus, coexpressed within the six-subunit hTFIIIC complex; purified (anti-FLAG M2 agarose, Capto HiRes Q)
B2: TRR-TCT3-2 tRNA gene, 32P-labeled (dsDNA)
DNA 1: ACGTGTCTGGCTCTGTGGCGCAATGGATAGCGCATTGGACTTCTAGATAGTTAGAGAAATTCAAAGGTTGTGGGTTCGAGTCCCACAGAGTCGCTTTT
DNA 2: AAAAGCGACTCTGTGGGACTCGAACCCACAACCTTTGAATTTCTCTAACTATCTAGAAGTCCAATGCGCTATCCATTGCGCCACAGAGCCAGACACGT

Experiments:
[1] = target: T2, human TFIIIC subunit TFIIIC220 (human, UniProt Q12789 1-2109); test: cryo-EM structure; purified hTFIIIC (3.17 μM) alone or with human TRR-TCT3-2 tRNA gene DNA at a 1:1 molar ratio; EM buffer 20 mM Hepes pH 8, 225 mM KCl, 2 mM MgCl2, 5 mM DTT; 0.1% octyl-β-glucoside; separate reconstructions of τA and of dimeric τB; conditions: both partners purified
T2 construct: TFIIIC220, largest subunit of human TFIIIC; 2109 amino acids as printed; No truncation is described; the expected mass of 624 kDa is that of the intact complex; also called τ138 in yeast (homolog); GTF3C1; source: Sf21 insect cells, baculovirus, coexpressed with the other five hTFIIIC subunits; purified (anti-FLAG M2 agarose, Capto HiRes Q); not shown: 3x FLAG, C-terminal, kept

[2] = target: T1, human TFIIIC subunit TFIIIC102; test: as above; conditions: both partners purified
[3] = target: TFIIIC220;TFIIIC110;TFIIIC102;TFIIIC90;TFIIIC63;TFIIIC35 (human;human;human;human;human;human, UniProt Q12789;Q8WUA4;Q9Y5Q9;Q9UKN8;Q9Y5Q8;Q969F1 1-2109;1-911;1-886;1-822;1-519;1-213, |||||); test: filter binding; 150 mM KCl, 2 mM MgCl2, 4 C; Filter binding: 20 mM Tris-HCl pH 7.5, 150 mM KCl, 2 mM MgCl2, 5 mM DTT, 30 min 4 C, ~0.5 nM DNA; EMSA: 20 mM Hepes pH 8, 225 mM KCl, 2 mM MgCl2, 5 mM DTT, RT 10 min, 0.8% agarose gel at 4 C; conditions: protein: recombinant;recombinant;recombinant;recombinant;recombinant;recombinant; tags: C-terminal 3xFLAG;N-terminal TEV-cleavable His;;;N-terminal TEV-cleavable His;; copies: 1;1;1;1;1;1; label: 5'-32P; blunt
Chain of TFIIIC220;TFIIIC110;TFIIIC102;TFIIIC90;TFIIIC63;TFIIIC35 (Q12789 whole entry, chain 1 of 3): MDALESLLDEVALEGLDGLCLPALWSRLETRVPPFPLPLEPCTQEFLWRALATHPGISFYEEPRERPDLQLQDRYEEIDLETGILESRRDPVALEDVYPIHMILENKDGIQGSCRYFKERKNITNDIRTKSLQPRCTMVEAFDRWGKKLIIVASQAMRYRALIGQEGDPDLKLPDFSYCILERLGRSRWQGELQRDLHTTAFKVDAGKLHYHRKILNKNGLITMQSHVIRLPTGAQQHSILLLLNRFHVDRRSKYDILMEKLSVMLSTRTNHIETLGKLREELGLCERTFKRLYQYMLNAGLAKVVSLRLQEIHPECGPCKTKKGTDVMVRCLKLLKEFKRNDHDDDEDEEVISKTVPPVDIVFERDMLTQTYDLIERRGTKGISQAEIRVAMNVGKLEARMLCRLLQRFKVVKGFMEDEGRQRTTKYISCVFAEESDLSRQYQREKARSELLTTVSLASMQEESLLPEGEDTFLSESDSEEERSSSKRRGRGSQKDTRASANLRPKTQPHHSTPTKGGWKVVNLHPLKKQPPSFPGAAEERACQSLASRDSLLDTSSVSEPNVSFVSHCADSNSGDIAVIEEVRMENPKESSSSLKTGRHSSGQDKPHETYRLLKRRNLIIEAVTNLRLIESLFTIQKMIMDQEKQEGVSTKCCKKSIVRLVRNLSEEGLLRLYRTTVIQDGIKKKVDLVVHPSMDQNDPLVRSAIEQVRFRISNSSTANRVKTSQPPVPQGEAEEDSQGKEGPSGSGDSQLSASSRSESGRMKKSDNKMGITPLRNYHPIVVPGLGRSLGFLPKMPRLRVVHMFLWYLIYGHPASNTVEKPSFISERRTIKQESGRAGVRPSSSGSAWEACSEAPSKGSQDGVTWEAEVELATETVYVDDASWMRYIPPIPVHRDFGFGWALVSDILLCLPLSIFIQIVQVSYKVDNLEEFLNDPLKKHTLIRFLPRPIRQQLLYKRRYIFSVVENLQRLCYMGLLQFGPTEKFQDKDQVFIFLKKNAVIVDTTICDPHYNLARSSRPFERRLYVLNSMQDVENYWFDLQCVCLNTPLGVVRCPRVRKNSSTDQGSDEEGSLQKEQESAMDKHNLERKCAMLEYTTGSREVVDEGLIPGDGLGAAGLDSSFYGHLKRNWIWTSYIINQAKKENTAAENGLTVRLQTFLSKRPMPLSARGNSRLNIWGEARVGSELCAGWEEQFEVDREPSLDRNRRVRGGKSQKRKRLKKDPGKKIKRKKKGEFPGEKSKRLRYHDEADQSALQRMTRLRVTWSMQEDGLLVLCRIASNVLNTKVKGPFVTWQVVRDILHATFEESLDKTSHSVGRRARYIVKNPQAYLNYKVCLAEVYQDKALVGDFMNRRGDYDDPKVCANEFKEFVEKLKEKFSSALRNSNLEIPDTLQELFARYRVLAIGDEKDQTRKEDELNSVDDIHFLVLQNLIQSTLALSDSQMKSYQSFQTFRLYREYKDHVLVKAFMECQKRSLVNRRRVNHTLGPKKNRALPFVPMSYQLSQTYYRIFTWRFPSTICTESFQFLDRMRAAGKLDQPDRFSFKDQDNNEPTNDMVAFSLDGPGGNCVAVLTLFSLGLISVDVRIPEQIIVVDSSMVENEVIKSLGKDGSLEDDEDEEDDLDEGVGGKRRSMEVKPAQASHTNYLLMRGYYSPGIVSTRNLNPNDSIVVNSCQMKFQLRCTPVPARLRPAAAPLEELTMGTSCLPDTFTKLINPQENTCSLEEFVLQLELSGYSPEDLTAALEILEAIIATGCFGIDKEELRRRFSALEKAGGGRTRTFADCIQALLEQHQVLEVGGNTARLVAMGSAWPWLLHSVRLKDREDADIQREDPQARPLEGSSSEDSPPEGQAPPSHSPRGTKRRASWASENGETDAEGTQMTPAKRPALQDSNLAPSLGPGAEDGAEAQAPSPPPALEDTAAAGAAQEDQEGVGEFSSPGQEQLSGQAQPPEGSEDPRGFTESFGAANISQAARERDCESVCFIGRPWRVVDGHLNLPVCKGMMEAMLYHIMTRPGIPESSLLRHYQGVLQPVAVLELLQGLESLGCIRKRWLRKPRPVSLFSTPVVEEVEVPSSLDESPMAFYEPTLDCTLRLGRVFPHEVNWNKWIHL
Chain of TFIIIC220;TFIIIC110;TFIIIC102;TFIIIC90;TFIIIC63;TFIIIC35 (Q8WUA4 whole entry, chain 2 of 3): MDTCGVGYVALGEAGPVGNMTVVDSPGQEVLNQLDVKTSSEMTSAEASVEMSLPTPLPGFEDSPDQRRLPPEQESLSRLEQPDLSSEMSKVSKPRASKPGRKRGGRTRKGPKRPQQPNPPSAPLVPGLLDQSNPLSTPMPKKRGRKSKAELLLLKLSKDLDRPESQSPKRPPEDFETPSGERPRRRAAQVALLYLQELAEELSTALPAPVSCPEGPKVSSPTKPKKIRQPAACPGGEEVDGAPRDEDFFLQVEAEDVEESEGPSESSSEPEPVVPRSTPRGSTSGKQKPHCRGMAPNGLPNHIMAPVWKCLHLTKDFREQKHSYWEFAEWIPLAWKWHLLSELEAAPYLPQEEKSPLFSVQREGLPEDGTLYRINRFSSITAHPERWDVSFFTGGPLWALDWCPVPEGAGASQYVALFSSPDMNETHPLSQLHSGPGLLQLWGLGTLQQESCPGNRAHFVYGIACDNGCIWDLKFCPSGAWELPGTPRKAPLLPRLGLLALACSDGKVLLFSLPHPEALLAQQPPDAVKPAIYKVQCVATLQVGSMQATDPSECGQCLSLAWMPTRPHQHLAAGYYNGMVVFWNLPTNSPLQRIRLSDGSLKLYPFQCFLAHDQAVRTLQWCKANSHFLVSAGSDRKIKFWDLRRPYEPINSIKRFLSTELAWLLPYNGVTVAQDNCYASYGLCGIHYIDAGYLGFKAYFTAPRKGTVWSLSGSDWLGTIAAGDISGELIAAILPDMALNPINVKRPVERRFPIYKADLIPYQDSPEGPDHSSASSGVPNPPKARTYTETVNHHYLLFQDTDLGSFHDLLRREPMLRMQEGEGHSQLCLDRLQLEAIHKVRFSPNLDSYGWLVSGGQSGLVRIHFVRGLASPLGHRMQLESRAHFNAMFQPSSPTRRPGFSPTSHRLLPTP
Chain of TFIIIC220;TFIIIC110;TFIIIC102;TFIIIC90;TFIIIC63;TFIIIC35 (Q9UKN8 whole entry, chain 4 of 3): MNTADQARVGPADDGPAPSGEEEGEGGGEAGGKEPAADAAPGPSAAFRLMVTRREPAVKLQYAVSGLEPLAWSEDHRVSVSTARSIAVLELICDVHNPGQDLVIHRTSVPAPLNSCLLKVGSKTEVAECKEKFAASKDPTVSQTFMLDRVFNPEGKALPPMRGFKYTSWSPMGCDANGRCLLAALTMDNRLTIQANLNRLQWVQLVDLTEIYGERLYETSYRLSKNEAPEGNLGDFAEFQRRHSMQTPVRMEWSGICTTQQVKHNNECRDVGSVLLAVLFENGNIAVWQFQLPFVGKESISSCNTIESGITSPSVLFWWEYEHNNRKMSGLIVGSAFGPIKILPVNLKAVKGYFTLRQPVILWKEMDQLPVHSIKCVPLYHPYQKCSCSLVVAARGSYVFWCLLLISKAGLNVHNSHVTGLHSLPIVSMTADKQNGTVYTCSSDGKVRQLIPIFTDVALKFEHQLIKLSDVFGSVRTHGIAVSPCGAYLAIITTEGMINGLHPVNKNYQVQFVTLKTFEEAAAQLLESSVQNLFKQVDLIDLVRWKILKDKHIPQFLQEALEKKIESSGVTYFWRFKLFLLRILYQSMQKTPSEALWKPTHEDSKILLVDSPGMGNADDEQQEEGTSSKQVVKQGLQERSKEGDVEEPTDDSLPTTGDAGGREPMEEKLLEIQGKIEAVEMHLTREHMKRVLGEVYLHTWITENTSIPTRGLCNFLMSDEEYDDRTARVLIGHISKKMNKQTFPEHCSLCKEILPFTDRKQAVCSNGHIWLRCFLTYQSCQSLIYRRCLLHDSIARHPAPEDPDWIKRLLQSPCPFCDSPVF

T2 sequence (Q12789 whole entry, the tested form may be a part): as the sequence (Q12789 whole entry, chain 1 of 3) above

Row | Binder | binding result [1] | binding result [2] | Kd [3] [nM]
1 | B1 | binds | binds | –
2 | B2 | – | – | 40
